In patent US20020151473A1:

Target: IgG
Experiment: microcalorimetry and surface plasmon resonance (same value stated for both)

- Kd: 100 µM
Substance: cyclized (locked helix) peptide FNM(5)QQRRFY(6)ALH
